Laboratory results published in the supplement of paper PMC10724198.
± gives the standard deviation of the averaged measurements.

Tested on: Saccharomyces cerevisiae
Experiment: protein stability index of tFT-peptide fusion (C-terminal peptide) (PSI (0-1 scale)); higher = more stable (slower turnover)
Conditions: genetic background: wild type; temperature: 30 C
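Further: PSI is a weighted mean of sequencing reads over stability bins, variants kept only with over 10 reads, mCherry proximal and sfGFP distal, peptide attached via GGGS linker.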

Row | Sequence | protein stability index
1 | TKNTEGVKNSLF | 0.64 ± 0.096
2 | TLAPPSRATPPP | 0.648 ± 0.041
3 | TLCITHARCFVK | 0.63 ± 0.0069
4 | TLGLDPCCSYSR | 0.752 ± 0.15
5 | TLLCGDASVLTA | 0.658 ± 0.071
6 | TLPRSLGPSSPA | 0.753 ± 0.076
7 | TLPVKAGHWRLG | 0.73084 ± 0.00065
8 | TLSPAPSPTPPP | 0.678 ± 0.048
9 | TLSPFRLFGPIS | 0.722 ± 0.092
10 | TLSSPPPPPPPP | 0.663 ± 0.046
11 | TLSTSPPPCHPL | 0.667 ± 0.06
12 | TMCRGGVSSQDL | 0.662 ± 0.057
13 | TMEKKAKKRIKK | 0.682 ± 0.23
14 | TMHFVWVLGILE | 0.524 ± 0.014
15 | TNKKKNRNKKAK | 0.657 ± 0.073
16 | TNLYGWGGERTV | 0.688 ± 0.0092
17 | TNVRMGCELEEK | 0.716 ± 0.14
18 | TNYWDRGSIQPK | 0.668 ± 0.021
19 | TPAIPTTLMSLR | 0.67 ± 0.063
20 | TPLHRIGGLHLK | 0.653 ± 0.0075
21 | TPPLALPAPCST | 0.679 ± 0.035
22 | TPPLPRFHAPQP | 0.665 ± 0.017
23 | TPPLRPLLYSNA | 0.53 ± 0.059
24 | TPPPAPRPPLPS | 0.719 ± 0.069
25 | TPPPLRTASLLP | 0.67 ± 0.1

Row | Sequence | protein stability index
26 | TPPSPDPSPPNT | 0.789 ± 0.046
27 | TPSPHTPLPLAP | 0.708 ± 0.09
28 | TPSPTRCPTPTR | 0.6 ± 0.025
29 | TPTLPPPSPTFH | 0.666 ± 0.021
30 | TPTSPPLPLTIS | 0.579 ± 0.016
31 | TPWLRGVVGPGS | 0.671 ± 0.083
32 | TQGLSSYYRHKI | 0.686 ± 0.061
33 | TQLSSVVVGGRR | 0.669 ± 0.015
34 | TRCDSSGGSAAP | 0.68 ± 0.094
35 | TRDATESLVERV | 0.694 ± 0.02
36 | TRFFFLLCRRSL | 0.57 ± 0.082
37 | TRGAGAKYSSVR | 0.721 ± 0.019
38 | TRGKETESIDSR | 0.685 ± 0.036
39 | TRICFPRFPPAP | 0.703 ± 0.044
40 | TRIGNGHPLGCG | 0.718 ± 0.024
41 | TRKRIKKHSMNK | 0.672 ± 0.085
42 | TRLVYFYLGRDI | 0.656 ± 0.054
43 | TRRRGGAREGPY | 0.758 ± 0.064
44 | TRSLPTLSPPPS | 0.659 ± 0.086
45 | TRSPTVAMRPKE | 0.676 ± 0.036
46 | TRTQTLAGILGG | 0.677 ± 0.029
47 | TRTRSMTQLVPL | 0.716 ± 0.068
48 | TRYGVRVPGRFR | 0.678 ± 0.018
49 | TSARQGFFASLV | 0.646 ± 0.049
50 | TSCPPAHLPPPP | 0.659 ± 0.046

Row | Sequence | protein stability index
51 | TSGDFLPSHSFL | 0.702 ± 0.074
52 | TSPGLPLPLPSP | 0.716 ± 0.0048
53 | TSPLSPPLPSFR | 0.696 ± 0.021
54 | TSPLSPSGPQSS | 0.86 ± 0.14
55 | TSPPPPSRPPSH | 0.691 ± 0.029
56 | TSPSLSALLSFV | 0.715 ± 0.073
57 | TSPVCPARPRQL | 0.646 ± 0.042
58 | TSSASVCASSVQ | 0.588 ± 0.023
59 | TSSTEKTKTKRP | 0.809 ± 0.17
60 | TTITTRSCALSS | 0.707 ± 0.015
61 | TTMNELPKSIKK | 0.739 ± 0.042
62 | TTPPPLPSDPLR | 0.622 ± 0.026
63 | TTRACVTRGCSV | 0.623 ± 0.051
64 | TTRTAAKKIHKD | 0.74 ± 0.055
65 | TTSQGHLCVAPR | 0.6827 ± 0.0038
66 | TTSSRDYIELLL | 0.729 ± 0.016
67 | TTTFPFGRLVLS | 0.68 ± 0.028
68 | TTVLRTFGDKQF | 0.715 ± 0.00088
69 | TTVRTVSLIDRI | 0.689 ± 0.059
70 | TVAEGKKMRGKV | 0.672 ± 0.036
71 | TVLKCECEYFLH | 0.654 ± 0.019
72 | TVPGKDEGEESV | 0.696 ± 0.037
73 | TVRAPLDSARCP | 0.739 ± 0.017
74 | TVWSSPPSRRSS | 0.699 ± 0.043
75 | TWAVTGDLLITR | 0.815 ± 0.15

Row | Sequence | protein stability index
76 | TWCSFHFYSFWC | 0.578 ± 0.01
77 | TWIPSFACQSLQ | 0.70274 ± 0.00029
78 | TYLSSPAPLLPL | 0.694 ± 0.033
79 | TYQNAKAEPTRV | 0.671 ± 0.038
80 | VACKGCVVACRV | 0.527 ± 0.045
81 | VACLVGVRGSWV | 0.66683 ± 0.00048
82 | VAESPGWAAGVD | 0.689 ± 0.015
83 | VAGDGYDVMDNG | 0.553 ± 0.029
84 | VAGFPSPVVLGW | 0.607 ± 0.085
85 | VALFIRITKHEY | 0.549 ± 0.027
86 | VAPPVLCRCSLR | 0.6481 ± 0.0052
87 | VARVGFRETLSF | 0.703 ± 0.05
88 | VATVSLSVRNTS | 0.66 ± 0.033
89 | VAVGLGRAVFGV | 0.611 ± 0.034
90 | VAVWGGSGDWGR | 0.729 ± 0.068
91 | VCAEGAAYSDKA | 0.646 ± 0.038
92 | VCAFGFPAASRV | 0.6627 ± 0.0046
93 | VCFSVSWSGLSC | 0.681 ± 0.009
94 | VCGALRWCGGPD | 0.705 ± 0.018
95 | VCGLRFLLFGCG | 0.63 ± 0.021
96 | VCIGVGGVVLGL | 0.642 ± 0.039
97 | VCKQASDSKLQG | 0.663 ± 0.023
98 | VCLRVGQGVLWW | 0.727 ± 0.021
99 | VCLVCLFNACRF | 0.608 ± 0.032
100 | VCLVNWLCFFCV | 0.529 ± 0.037

Row | Sequence | protein stability index
101 | VCPPSPTLKPPP | 0.624 ± 0.011
102 | VCRRSVLHSCWS | 0.678 ± 0.0097
103 | VCRTLAPCIRWR | 0.633 ± 0.063
104 | VCSLSCVGIWYW | 0.625 ± 0.0039
105 | VCTRACFLFAYP | 0.582 ± 0.015
106 | VDCYIFPGIGAL | 0.701 ± 0.041
107 | VDHWVCWCGGWV | 0.731 ± 0.0098
108 | VDINYVIGRIRS | 0.642 ± 0.0087
109 | VDRAFVWYLRDL | 0.695 ± 0.0076
110 | VDRDWFLKRDSH | 0.711 ± 0.031
111 | VDTTISVCCSVC | 0.68339 ± 0.00029
112 | VDVSGIKAGRPW | 0.681 ± 0.011
113 | VEAFIVDETRVV | 0.6984 ± 0.0064
114 | VEAGDYAWDEAA | 0.657 ± 0.056
115 | VECVPFAPPRPH | 0.68 ± 0.14
116 | VEEKDNNVRYVL | 0.697 ± 0.025
117 | VEHVRIGGGGKS | 0.7 ± 0.013
118 | VEQISYATIAFV | 0.608 ± 0.061
119 | VERIALIPASRQ | 0.706 ± 0.035
120 | VERRNAVGTDEK | 0.611 ± 0.063
121 | VEVCLLRRWFGL | 0.667 ± 0.055
122 | VEWGGDGVFWTG | 0.8 ± 0.023
123 | VFALFRLSSLDK | 0.673 ± 0.074
124 | VFALPPAPPPSP | 0.722 ± 0.062
125 | VFCPGWRKCNDP | 0.661 ± 0.043

Row | Sequence | protein stability index
126 | VFEVNPRFDKLV | 0.758 ± 0.016
127 | VFFCHFRFTPPS | 0.692 ± 0.059
128 | VFFDLALRWYGV | 0.748 ± 0.082
129 | VFGDFAIGGLSG | 0.711 ± 0.077
130 | VFGLSPLLQPSD | 0.654 ± 0.0086
131 | VFGRHSNRSPLY | 0.808 ± 0.07
132 | VFLGCCWVHFFY | 0.534 ± 0.0062
133 | VFLILKPRDLTE | 0.667 ± 0.01
134 | VFLSITHFESRV | 0.723 ± 0.055
135 | VFPIISYPHTKS | 0.6779 ± 0.0064
136 | VFPPRPPRAFPP | 0.662 ± 0.00098
137 | VFPYGVSRGALL | 0.66 ± 0.011
138 | VFRFRARRYNES | 0.655 ± 0.079
139 | VFSFFNFCFCFY | 0.615 ± 0.06
140 | VFSTRLTSWYLT | 0.555 ± 0.01
141 | VFVGCRECKLCA | 0.57592 ± 7.6e-05
142 | VFVLEGSSTPRS | 0.6487 ± 0.0011
143 | VFVRSTSFLFFG | 0.678 ± 0.0097
144 | VGAAVFGARWGA | 0.689 ± 0.037
145 | VGACLEVWDGVR | 0.686 ± 0.024
146 | VGAEGWAVAGDM | 0.77 ± 0.078
